Test results taken from US20170016905A1 (VAR2 PHARMACEUTICALS, published 2017).

Legend:
[1] = molecular target: CSPG (bovine) (D8428, Sigma) (bovine) (UniProt P21793); assay: quartz crystal microbalance (Attana A100), CSPG coated, 1:1 fit
[2] = molecular target: T1, CSPG (bovine) (D8428, Sigma) (bovine, UniProt P21793 31-360, carries chondroitin sulfate A (CSA) glycosaminoglycan chain(s); the filing attributes the binding of VAR2CSA to this glycan); assay: quartz crystal microbalance (Attana A100); legend: N/A = no KD value could be determined, due to a lack of binding to CSA
T1 construct: also called chondroitin sulfate proteoglycan; CSA proteoglycan
T1 sequence (P21793 31-360): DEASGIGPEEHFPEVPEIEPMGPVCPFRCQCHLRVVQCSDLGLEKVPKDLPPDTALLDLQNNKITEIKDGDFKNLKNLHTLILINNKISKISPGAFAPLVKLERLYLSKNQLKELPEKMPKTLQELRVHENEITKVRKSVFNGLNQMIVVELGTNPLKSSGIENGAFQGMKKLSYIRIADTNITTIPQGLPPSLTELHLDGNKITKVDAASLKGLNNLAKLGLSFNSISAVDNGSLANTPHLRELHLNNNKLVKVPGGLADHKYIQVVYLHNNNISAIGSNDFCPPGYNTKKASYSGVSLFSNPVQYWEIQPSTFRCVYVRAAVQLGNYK

[3] = molecular target: T1, CSPG (bovine) (D8428, Sigma); assay: quartz crystal microbalance (Attana A100), CSPG coated, 1:1 fit

CSPG (bovine) (D8428, Sigma) (bovine), sequence (P21793 31-360): as above

For DBL2X-DBL4ε (FCR3, Baculo), which Kd [1] is on record?
Its Kd is 2.4 nM.

For ID1-DBL4ε (FCR3, Baculo), which Kd [1] is on record?
Its Kd is 8.6 nM.

For ID1-DBL3ε (FCR3, Baculo), which Kd [1] is on record?
Its Kd is 0.3 nM.

B1: DBL1X-DBL2Xa (FCR3, Baculo) (other)
chain: HSDSGKYDPCEKKLPPYDDNDQWKCQQNSSDGSGKPENICVPPRRERLCTYNLENLKFDKIRDNNAFLADVLLTARNEGEKIVQNHPDTNSSNVCNALERSFADLADIIRGTDQWKGTNSNLEKNLKQMFAKIRENDKVLQDKYPKDQKYTKLREAWWNANRQKVWEVITCGARSNDLLIKRGWRTSGKSDRKKNFELCRKCGHYEKEVPTKLDYVPQFLRWLTEWIEDFYREKQNLIDDMERHREECTREDHKSKEGTSYCSTCKDKCKKYCECVKKWKTEWENQENKYKDLYEQNKNKTSQKNTSRYDDYVKDFFEKLEANYSSLENYIKGDPYFAEYATKLSFILNPSDANNPSGETANHNDEACNCNESGISSVGQAQTSGPSSNKTCITHSSIKTNKKKECKDVKLGVRENDKDLKICVIEDTSLSGVDNCCCQDLLGILQENCSDNKRGSSSNDSCDNKNQDECQKKLEKVFASLTNGYKCDKCKSGTSRSKKKWIWKKSSGNEEGLQEEYANTIGLPPRTQSLYLGNLPKLENVCEDVKDINFDTKEKFLAGCLIVSFHEGKNLKKRYPQNKNSGNKENLCKALEYSFADYGDLIKGTSIWDNEYTKDLELNLQNNFGKLFGKYIKKNNTAEQDTSYSSLDELRESWWNTNKKYIWTAMKHGAEMNITTCNADGSVTGSGSSCDDIPTIDLIPQYLRFLQEWVENFCEQRQAKVKDVITNCKSCKESGNKCKTECKTKCKDECEKYKKFIEACGTAGGGIGTAGSPWSKRWDQIYKRYSKHIEDAKRNRKAGTKNCGTSSTTNAA
notes: Range derived by me from the FCR3 DBL1X forward primer and the FCR3 DBL2Xa reverse primer (STTNAA), which ends 93 residues before the DBL2Xb border; not shown: V5 and His tag at the C-terminal (modified pAcGP67-A)
Does B1 bind [2]?
Result: no binding

B2: DBL1-ID2b (FCR3, Baculo) (other)
chain: HSDSGKYDPCEKKLPPYDDNDQWKCQQNSSDGSGKPENICVPPRRERLCTYNLENLKFDKIRDNNAFLADVLLTARNEGEKIVQNHPDTNSSNVCNALERSFADLADIIRGTDQWKGTNSNLEKNLKQMFAKIRENDKVLQDKYPKDQKYTKLREAWWNANRQKVWEVITCGARSNDLLIKRGWRTSGKSDRKKNFELCRKCGHYEKEVPTKLDYVPQFLRWLTEWIEDFYREKQNLIDDMERHREECTREDHKSKEGTSYCSTCKDKCKKYCECVKKWKTEWENQENKYKDLYEQNKNKTSQKNTSRYDDYVKDFFEKLEANYSSLENYIKGDPYFAEYATKLSFILNPSDANNPSGETANHNDEACNCNESGISSVGQAQTSGPSSNKTCITHSSIKTNKKKECKDVKLGVRENDKDLKICVIEDTSLSGVDNCCCQDLLGILQENCSDNKRGSSSNDSCDNKNQDECQKKLEKVFASLTNGYKCDKCKSGTSRSKKKWIWKKSSGNEEGLQEEYANTIGLPPRTQSLYLGNLPKLENVCEDVKDINFDTKEKFLAGCLIVSFHEGKNLKKRYPQNKNSGNKENLCKALEYSFADYGDLIKGTSIWDNEYTKDLELNLQNNFGKLFGKYIKKNNTAEQDTSYSSLDELRESWWNTNKKYIWTAMKHGAEMNITTCNADGSVTGSGSSCDDIPTIDLIPQYLRFLQEWVENFCEQRQAKVKDVITNCKSCKESGNKCKTECKTKCKDECEKYKKFIEACGTAGGGIGTAGSPWSKRWDQIYKRYSKHIEDAKRNRKAGTKNCGTSSTTNAAASTDENKCVQSDIDSFFKHLIDIGLTTPSSYLSNVLDDNICGADKAPWTTYTTYTTTEKCNKERDKSKSQSSDTLVVVNVPSPLGNTPYRYKYACQCKIPTNEETCDDRKEYMNQWSCGSARTMKRGYKNDNYELCKYNGVDVKPTTVRSNSSKLDGNDVTFFNLFEQWNKEIQYQIEQYMTNANISCIDEKEVLDSVSDEGTPKVRGGYEDGRNNNTDQGTNCKEKCKCYKLWIEKINDQWGKQKDNYNKFRSKQIYDANKGSQNKKVVSLSNFLFFSCWEEYIQKYFNGDWSKIKNIGSDTFEFLIKKCGNNSAHGEEIFNEKLKNAEKKCKENESTDTNINK
notes: Range derived by me from the FCR3 DBL1X forward primer (HSDSGK) and the FCR3 ID2b reverse primer (TDTNINK); also called DBL1X-ID2b; not shown: V5 and His tag at the C-terminal (modified pAcGP67-A)
B2 was tested. Which Kd [3] did it give?
Its Kd is 1.5 nM.
